Data as given in the nanobody polyreactivity screen of Harvey et al. (2022).

Assay: yeast display, Sf9 membrane polyspecificity reagent, FACS + sequencing; frameworks hold sequencing errors
Procedure, shortened: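 After 36–48 hours of galactose induction, yeast (Saccharomyces cerevisiae BJ5465) displaying a synthetic nanobody library were stained at 4 °C for 1 hour with 10% biotinylated, detergent-solubilized Sf9 membrane reagent. Streptavidin microbeads enriched the stained cells before FACS sorting into low and high (top ~1%) gates on anti-HA and streptavidin fluorescence. Each clone's polyreactivity label reflects its gate of origin.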

Sequence | polyreactivity (PSR sort gate)
QVQLVESGGGLVQAGGSLRLSCAASGFIFYINAMGWYRQAPGKERELVAAISTSGGSTYYADSVKGRFTISRDNAKNTVYLQMNSLKPEDTAVYYCAAEGSYWYYSYDYWGQGTQVTVSS | high polyreactivity
QVQLVESAGGLVQAGGSLRLSCAASGRIFRYYAMGWYRQAPGKERELFAAISRSGASTYYADSVKGRFTISRDNAKNTVYLQMNSLIPEDTAVYYCAAGYWPGYSQTYRGGYWGQCTQVTVSS | high polyreactivity
QVQLVESGGVLVQAGGSLRLSCAASGSIFYRYAMGWYRQAPGKERELVAANSSNGVSTYYADSVKGRFTISRDNAKNTVYLQMNSLKPEDTAVYYCARDVYASPRLYTSRYNYWGQGTQVTVSS | low polyreactivity
QVQLVESGGGLVQAGGSLRLSCAASGFTFYHYAMGWSRQAPGKESELVATISKRGGSTYYADSVKGRFTISRDNAKNTVYLQMNSLKPQDTAVFYCAAKIYWSSLKMDYWGQGTQVTVSS | high polyreactivity
QVQLVESGGGLVQAGGSLRLSCAASGSTFDPYAMGWYRQAPGKEREFVADIDSSVGSTFYADSVKGRFTISRDNAKNTVYLQMNSLKPEDTAVYYCAAVYESYYYEYYYWGQGTQVTVSS | high polyreactivity
QVQLVESGGGLVKAGGSLRLSCAASGFIFSLYAMGWYRQAPGKERELVASINRRGTSTFYADSVKGRFTISRDNAKNTVYLQMNSLKPEDTAVYYCNAYPGAAIRSTGRYDYWGQGTQVTVSS | low polyreactivity
QVQLVESGGGLVQAGGSLRLSCAASRRISHYYAMGWYRQAPGKERALVASIRISGGSTYYADSVKGRFTISRDYAKNTVFLQMNSLKPEDTAVYYCATLGYNWRRLYYWGQGTEVTVSS | high polyreactivity
QVQLVESGGGLVQAGGSLRLSCAASGRIITAYAMGWYRQAPGKEREFVAAINVSGGSTYYADSVKGRFTISRDNAKNTVYLQMDSLKPEDSAVYYCNADYYYYDIYWWQMDYWGQGTQVTVSS | low polyreactivity
QVQLVESVGVLVKAGGSLRLSCAASGRIYSSYALGWYRQAPGKEREFVAYISNSGGSTYYADSVKGRFTISRDNAKNTVYLQMNILKPEDTAVYYCAAAVYSYTYRYYYWGQGTQLTVSS | high polyreactivity
QVQLVESGGGLVQAGGSLRLSCAASGSTFVDNAMGWYRQAPGKERELVAAIRDGSGGSTRYADSVKGRFTISRDNAKNTVYLQMNSLKPEDTAVYYCAADGYITVNYLRYDYWGQGTQVTVSS | low polyreactivity
QVQLVESGGGLVQAGGSLRLSCAASGITFTLYAMGWYRQAPGKERELVASISWSGGSTYYADSVKGRFTISRDNAKNTVYLQMNSLKPEDTAVYYCNAVYARKYYYSHGYDYWGQGTQVTVSS | high polyreactivity
QVLLVESGGGLVQAGGSLRLSCAASGSTFPLYAMGWYRQAPGTERELVAAITSGGGNTYYADSVMGRFTISRDKAQNTVYLQMNSLKPEDTAVYYCAAVGGYKTYYSYEYDYWGQGTQVTVSS | low polyreactivity
QVQLVESGGGLVQAGGSLRLSCAASGNIFPAYVMGWYRQAPGKERELVAAITDSDGSTFYADSVKGRFTISRDNAKNTVYLQMNSLKPEDTAVYYCAAYSYRQGWGFGYWGQGTQVTVSS | low polyreactivity
QVQLVESGGGLVQAGGSLRLSCAASGGTIAGYAMGWYRHAPGKERELVASISDGGSTNYADSVKGRFTISRDNAKNTVYLQMNSLKPEDTAVYYCADLAYVPSYTYDYWGQGTQVTVSS | low polyreactivity
QVQLVESGGGLVQAGGSLRLTCAASGFTFSGYAMGWYRQAPGKERELVAAISSSGASTYYADSVKGRFRISRDNAKYTVYLQMNSLNPEDTAVYYCNTLYYFPYLWPYDYWGQGTQVTVSS | high polyreactivity
QVQLVESGGGLVQAGGSLRLSCAASGSISSKNAMGWYRQAPGKEREFVAVISGTGGSTYYADSVKGRFTISRDNAKNTVYLQMNSLKPEDTAFYYCAAAASSIVSYGYTWTYGYWGQGTQVTVSS | low polyreactivity
QVQLVESGGGLVQAGGSLRLSCAASGRIFGLYAMGWYRQAPGKERELVAAIRGRGGRTSYADSVKGRFTISRDNAKNTVYLQMNSLKPEDTAVYYCNAELYPWPGVVRYNYWGQGTQVTVSS | high polyreactivity
QVQLVESGGGLVQAGGSLRLSCAASGITFKYYTMGWYRQAPGKERELVAAITADTGTTYYADSVKGRFTISRDNAKNTVYLQMNSLKPEDTAVYYCATRDVFYDDDYWGQGTQVTVSS | high polyreactivity
QVQLVESGGGLVQAGGSLRLSCAASGSTSYNAMGWYRQPPGKERELVAAITSSGGRTYYADSVKGRFTISRDNAKNTVYLQMNSLKPEDTAVYYCNAPTSARRQGKDYGYWGQGTQVTVSS | high polyreactivity
QVQLVESGGGLVQAGGSLRLSCAASGITFTSYAMGWYRQAPGKERELVAAISTRVGRTYYADSVKGRFTISRDNAKNTVYLQMNSLKPEDTAVYYCAADRISQGYSTYNYWGQGTQVTVSS | high polyreactivity
QVQLVESGGGLVQAGGSLRLSCAASGRNLRWYAMGWYRPAPGKERELVAAISTRSGSTYYADSVKGRFTISRDNAKNTVYLQMNSLKPEDTAVYYCAAQFWVKGQPQYGYLGQGTQVTVSS | high polyreactivity
QVQLVESGGGLVQAGCSLRLSCAASGSIFYRYAMGWYRQAPGKERELVAAISRSGGRTYYADSVKGRFTISRDNAKNTVYIQMNSLKPEDTAVYNCAAESTVGTDLGGDSWGQGTQVTVSS | high polyreactivity

Sequence | polyreactivity (PSR sort gate)
QVQLVESGGGLVQAGGSLRLSCAASGSIFSGNAMGWYRQAPGKERELVAAISRSGGSTYYADSVMGRFTISRDNAKNTVYLQMNSLKPEDTAVYYCNAGRYRAGGWGVGEGYWGQGTQVTVSS | high polyreactivity
QVQLVESVGGLVQAGGSLRLTCVASGRIFLTYAMGWYRQAPGKERELVAAISYSGASTYYADSVKGRFTISRDNAKNTVYLQMNSLKPEDTAVYYCATERVGTPRMNYWGQGTQVTVSS | high polyreactivity
HVQLVESGGGLVQAGGSLRLSCAASGLIFYNYAMGWYRQAPGKERELVAAITGSGGSTYYADSVKGRFTISRDNAKNTVYLQMNSLKPEDTAVYYCAADGIYTFEYWGQGTLVTVSS | low polyreactivity
QVHLVESGGGLVQAGGSLRLSCAASGSTFYPYSMGWYRQAPGKERELVAAISSGGSTSYADSVKGRFTISRDNAKNTVYLQMNSLKPDDTAVYYCAALYRIFSYDYWGQGTQVTVSS | low polyreactivity
QVQLVESGGGLVQAGGSLRLSCAASGRIFGRYAMGWYRQAPGTERELVAAITSGGRTSYADSVKGRFTISRDNAKNTVDLQMNSLKPEDTAVYYCNVVSRNSIRFDYWGQGTQVTVSS | high polyreactivity
QVQLVESGGGLVQAGGSLRLSCAASGITIRRYAMGWYRQAPGKERELVAAISTSGGGTYYADSVKGRFTISRDNAKYTVYLQMNSLKPEDTAVYYCAARYLGYLLSGYPPYDYWGQGTQVTVSS | high polyreactivity
QDQLVESGGGLVQAGGSLRLSCAASGSTLFYAMGWYRQAPGKERELVAAISWSGGSTRYADSVKGRFTISRDNAKNTVYLQMNSLKPEDTAVYYCNRDPDTWGYQPDWYYGAYDYWGQGTQVTVSS | low polyreactivity
QVQLGESGGGLVQAGGSLRLSCAASGSIFAFNTMGWYRQAPGKERELVAAITWGGGSTYYADSVKGRFTISRDNAKNTVYLQMNSLKPEDTAVYYCAARRSGRTRYYWGQGTQVTVSS | high polyreactivity
QVQLVESGGGLVQAGGSLRLSCAASGRISPSYAMGWYRHATGKERELVAAISRGGSTSYADSVKGLFTISRDNAKNTVYLQMNSLKPEDTAVYYCSTRGPRYRNYYWGQGTQVTVSS | high polyreactivity
QVQLVESGGGLVQAGGSLRLSCAASGFIFKGYAMGWYRQAPGKERELVAAISQRGSSTYYADSVKGRFTISRDNAKNTVYLQMNSLKPEDTAVYYCNALRHSKLDYYSWGQGTQVTVSS | high polyreactivity
QVQLVESGGGLEQAGGRLRLSCAASGSTFGGYAMGWFRQSPGTERQLVAAISGSGVRTYYADSVKGRFTISRDTAKNTVYLEMNSLNQEDTEVFYCAKRVRYPGDLYYYWGQGTQVTVSW | high polyreactivity
QVQLVESGGGLVQAGGSLRLSCAASGRIFRYYAMGWYRQAPGKERELVAAISYSGGRTYYADSVKGRFTISRDNAKNTVYLQMNSLKPEDTAVYYCARFWHSQSSYVPFDSWGQGTQVTVSS | high polyreactivity
QFQLVESGGGLVQAGGSLRLSSAASGFIFAHNAMGWYRQAPGKERELVDAITSSGGSTYYADSVKGRFSISRDNAKNTVYLQMNSLKPEDTAVYYCNAYTYARRGYDYWGQGTQVTVSS | high polyreactivity
QVQLVESGGGLVQAGGSLRLSCAASGSTLRTNAMGWYRQAPGKERELVAAISSSAGSTYYADSVKGRFTISRDNAKNTVYLQMNSLKQEDTAVYYCAKQPGSAYGYWGQGTQVTVSS | high polyreactivity
QVQLVESGGGLVQAGGSLRLSCAASGRTFGRYAMGWYRQAPGKERELLARISYSGGSTYYADSVKGRFTISRDNAKNTDYLQMNSLKPEDTAVYYCAASFFGRFDPDRSYWGQGTQVTVSS | high polyreactivity
QVQLVESGGGLVQAGGSLRLSCAASGRIFWLYAMGWYRQAPGKERELVAAITGIGGSTYYADSVKGRFTISRDNAKNTVYLQMNSLKPEDTAVYYCAARYPATYPSMGYWGQGTQVTVSS | low polyreactivity
QVQLVESGGGLVQAGGSLRLSCAASGRIFSYYAMGWYRQAPGKERELVAAISWNGGSTYYADSVKGRFTISRDNAKNTVYLQMNSLKPEDTAVYYCNRLGYRTGYERDYWGQGTQVTVSS | high polyreactivity
QVQLVESGGGLVQAGGSLRLSCAASGGIFGSYAMGWYRQAPGKERELVAAISWTGGSTYYADSVKGRFTISRDTAKNTVYLQMNSLKREDTAVYYCNADTYRRAQLRFNSWGQGTQVTVSS | low polyreactivity
QVHLVESGGGLVQAGGILRLSCPASGSTFVYYAMVWYRQAPGKERELVAAISRSGGNTYYAYSVKGRFTISRDNAKNTVYLQMNSLKQEDTAVYYCAARSYGVQYYYWGQGTQVTVSS | high polyreactivity
QVQLVESGGGLVQAGGSLRISCAASGRTFYWYAMGWYRQAPGKERELVAAISAGGGRTYCADSVKGRFTISRDNAKNTVYLQMNSLKPEDTAVYYCAADFQRGAKYTYDFWGQGTQVTVSS | high polyreactivity
QVQLVESGGGLVQAGGSLRLSCAASGSTFWYYAMGWYRQAPGKERELVASITYSGGSTYYADSVKGRFTISRDNAKNTVYLQMNSLKPEDTAVYYCAAEGYYSNYHFWGQGTQVTVSS | low polyreactivity
